Measurements from patent publication US20040253222A1.

Target: complement receptor type 3 (CR3), heterodimer of CD11b and CD18 (human) (UniProt P11215)
Assay: cell-based or functional assay

| Substance | invasion inhibition of endo- and ectocervical cells (gentamicin-resistance assay) [%] | invasion inhibition, ectocervical cells (gentamicin-resistance assay) [%] | invasion inhibition, endocervical cells (gentamicin-resistance assay) [%] |
| --- | --- | --- | --- |
| Bear1 anti-CD11b antibody (Immunotech) | > 93 |  |  |
| H5A4 anti-CD11b monoclonal antibody (Developmental Studies Hybridoma Bank) | > 93 | 100 | 99.9 |
| IB4 anti-CD18 antibody | > 93 |  |  |
